Results published in publication PMC11515964.

Target: T1, Full-length human GPR1, wild type, N-terminal FLAG tag (pcDNA3.1(+)) (human) (UniProt P46091)
T1 sequence: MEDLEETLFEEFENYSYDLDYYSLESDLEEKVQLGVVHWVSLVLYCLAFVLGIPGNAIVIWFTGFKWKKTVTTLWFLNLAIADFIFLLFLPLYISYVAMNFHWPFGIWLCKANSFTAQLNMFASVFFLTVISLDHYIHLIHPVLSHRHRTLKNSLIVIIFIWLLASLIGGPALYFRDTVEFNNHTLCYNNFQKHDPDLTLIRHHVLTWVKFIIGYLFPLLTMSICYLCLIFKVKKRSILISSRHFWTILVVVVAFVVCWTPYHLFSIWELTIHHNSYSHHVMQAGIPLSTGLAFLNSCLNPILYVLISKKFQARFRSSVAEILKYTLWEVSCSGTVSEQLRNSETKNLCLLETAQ

B1: Full-length chemerin (abcam, ab256228) (ligand)
chain: ELTEAQRRGLQVALEEFHKHPPVQWAFQETSVESAVDTPFPAGIFVRLEFKLQQTSCRKRDWKKPECKVRPNGRKRKCLACIKLGSEDKVLGRLVHCPIETQVLREAEEHQETQCLRVQRAGEDPHSFYFPGQFAFS
For B1, which EC50 of cAMP inhibition (HeLa) and NanoBiT G protein dissociation (HEK293T) is on record?
The EC50 of cAMP inhibition (HeLa) and NanoBiT G protein dissociation (HEK293T) was 100 pM.
